Experimental data: patent US20230348573A1 (KEIO UNIVERSITY, published 2023)

How the values were obtained:
[1] = biological target: spike protein of SARS-CoV-2 (Wuhan strain) on pseudovirus (SARS-CoV-2 (Wuhan strain), UniProt P0DTC2 14-1254); assay: cell-based or functional assay
[2] = biological target: T1, full-length spike protein of SARS-CoV-2 (Wuhan strain) (SARS-CoV-2 (Wuhan strain), UniProt P0DTC2 14-1273); assay: ACE2 competition, spike on 293T cells, antibody 4 µg/mL
T1 construct: whole, on cells; Expressed in 293T cells

[3] = biological target: T2, RBD derived from SARS-CoV-2 (Wuhan strain) (SARS-CoV-2 (Wuhan strain), UniProt P0DTC2 319-541); assay: RBD beads, antibody 0.25 µg/mL, then labelled ACE2, flow cytometry
T2 construct: domain: RBD

[4] = biological target: T2, RBD derived from SARS-CoV-2 (Wuhan …); assay: RBD beads, antibody 1 µg/mL, then labelled ACE2, flow cytometry
[5] = biological target: T2, RBD derived from SARS-CoV-2 (Wuhan …); assay: RBD beads, antibody 4 µg/mL, then labelled ACE2, flow cytometry

B1: Ab830 (antibody, V domains shown)
VH: QVQLVQSGAEVKKPGSSVKVSCKTSGGTFTNYTISWVRQAPGQGLEWMGRIIPIFDIVNYAQKFQGRVTITADKSTSTTYMELSSLRSEDTAVYYCARDGVLYDTSGYLYDAFDIWGQGTMVTVSS
VL: DIQMTQSPSSLSASVGDRVTITCRASQGINNYLAWFQQKPGKAPKSLIYAASSLQSGVPPKFSGSGSGTDFTLTISSLQPEDFATYYCLHYNSYPWTFGQGTKVEIK
[1]
  IC50 of pseudovirus infection (luciferase): 0.0349 µg/mL
[2]
  binding amount (%) of ACE2 protein: 0.9%

B2: Ab816 (antibody, V domains shown)
VH: QVQLVQSGAEVKKPGESLMISCKASGYNFRNYWIAWVRQMPGKGLEWMGIIHPGDSDIRYRPSLQGHVTISADKSITTAYLQWGSLKASDTAMYYCTRITTDADSSGLFHYWGQGTLVTVSS
VL: EIVLTQSPSTLSASVGDRVTITCRASQNIYTWLAWYQRKPGKAPKVLIYKASSLESGVPSRFSGSGSGTEFTLTISSLQPDDFATYYCQQYKSAWSFGQGTKVEIK
[1]
  IC50 of pseudovirus infection (luciferase): 0.023 µg/mL
[2]
  binding amount (%) of ACE2 protein: 0.3%

B3: Ab709TK (antibody, V domains shown)
VH: QVQLVESGGGVVQPGKSLRLSCAASGFTFSSYAMHWVRLAPGKGLEWVAVISPDGKNKYYVDSVKGRSTISRDNSKNTLYLLMNSLRAEDTAVYYCATTQSLWFGQFYYIYGMDVWGQGTTVTVSS
VL: QSVLTQPHSVSESPGKTITISCTGSSGSIASNYVQWYQQRPGSAPTTVIYEDTERPSGVPDRFSGSIDSSSNSASLTISGLKTEDEADYYCQSYDSNNVVFGGGTKLTVL
[1]
  IC50 of pseudovirus infection (luciferase): 0.0717 µg/mL
[2]
  binding amount (%) of ACE2 protein: 0.6%

B4: Ab175 (antibody, V domains shown)
VH: EVQLVESGGGLVQPGGSLRLSCAASGIIVSSNYMTWVRQAPGKGLEWVSVLYSGGSTFYADSVKGRFTISRDNSKNMLYLQMNSLRAEDTAVYYCARDLQELGVDCWGQGTLVTVSS
VL: DIQLTQSPSFLSASVGDRVTITCRASQGISSYLAWYQQKPGKAPKLLIYAASTLQSGVPSRFSGSGSGTEFTLTISSLQPEDFATYYCQQLDSYPRFGGGTKVEIK
[3]
  fluorescence of ACE2 protein: 1660
[2]
  binding amount (%) of ACE2 protein: 6.9%
[4]
  fluorescence of ACE2 protein: 439

B5: Ab863 (antibody, V domains shown)
VH: EVQLVQSGAEVKKPGASVKVSCQASGYTFITYYMHWVRQAPGQGLEWMGIINPDGGSISYAQKFQGRVTMTRDTSTSTVYMELSSLRSEDTAVYYCARGLSPTFSSSWFDNWGLGTLVTVSS
VL: DVVMTQSPATLSVSPGERATLSCRASQSVSSNLAWYQQKPGQAPRLLIYGASTRDTGIPARFSGSGSGTEFTLTISSLQSEDFAVYFCQQYKNWLLTFGGGTKVEIK
[2]
  binding amount (%) of ACE2 protein: 1.7%

B6: Ab712 (antibody, V domains shown)
VH: QVQLVQSGSELKKPGASVKISCKASGYTFINHAINWVRQAPGQGLEWMGWINTNTGNPTYAPGFTGRFVFSLDTSVSTAYLQISSLKAEDTAVYYCARIPIRDYDYDGSGYYYFLDYWGQGTLVTVSS
VL: SYELTQDPAVSVALGQTVRITCQGDSLRSSSASWYQQKPGQAPVLVIYGKTNRPSGIPDRFSGSSSGNTASLTITGAQAEDEADYYCNSRDNSGNHPVVFGGGTKLTVL
[1]
  IC50 of pseudovirus infection (luciferase): 0.105 µg/mL
[2]
  binding amount (%) of ACE2 protein: 4.6%

B7: Ab803 (antibody, V domains shown)
VH: EVQLVESGGGLVQPGRSLRVSCAASGFTFDDYAMHWVRQTPRKGLEWVAGISRNSAAIAYADSVKGRFTISRDNAKNSVFLQMNGLRADDTALYYCVKSPRYGWGSPDYSFDFWGRGTLVTVSS
VL: DIQLTQSPSSLSASVGDRVTITCRASQNIGTYLNWYQQEPGKAPKLLIYAASSLQSGVPSRFSGSGSGTDFTLTISSLQPEDFATYCCQQSFTTPLTFGQGTKVEIK
[1]
  IC50 of pseudovirus infection (luciferase): 0.0468 µg/mL
[2]
  binding amount (%) of ACE2 protein: 0.9%

B8: Ab315 (antibody, V domains shown)
VH: EVQLLESGGGLIQPGGSLRLSCAASGLIVSSNYMSWVRQAPGKGLEWVSVIYSGGSTYYADSVKGRFISSRDNSKNTLYLQMNSLRAEDTAVYYCARGELDLPYGMDVWGQGTTVTVSS
VL: QAVVTQPPSVSAAPGQKVTISCSGSSSNIGNNYVSWYQQLPGTAPKLLICDTNKRPSGIPDRFSGSKSGTSATLGITGLQTGDEADYYCGTWDRSLSAGVFGGGTKLTVL
[5]
  fluorescence of ACE2 protein: 160
[3]
  fluorescence of ACE2 protein: 927
[2]
  binding amount (%) of ACE2 protein: 5.2%
[4]
  fluorescence of ACE2 protein: 307

B9: Ab176 (antibody, V domains shown)
VH: EVQLVESGGGLVQPGGSLRLSCAASGFTFSSYSMNWVRQAPGKGLEWVSYISGSSSTIYYADSVKGRFTISRDNAKNSLYLQMNSLRAEDTAVYYCVSSEWLLPRFFDYWGQGTLVTVSS
VL: QPVLTQEASVSGTVGQKVTLSCTGNRNNIGSYPVGWYQQISHGAPKTVMFGNSPPSGIPDRFFGSRSGTTASLTISGLQPEDEADYYCSTWDYSLSAVVFGGGTKLTVL
[5]
  fluorescence of ACE2 protein: 366
[3]
  fluorescence of ACE2 protein: 2660
[2]
  binding amount (%) of ACE2 protein: 8.3%
[4]
  fluorescence of ACE2 protein: 1190

B10: Ab374 (antibody, V domains shown)
VH: EVQLVESGGGLIQPGGSLRLSCVASGFTVSSNYLAWVRQAPGQGLEWVSLIYPGGSTFYADSVKGRFTISRGNSNNTLYLQLNSLRTEDTAVYYCASLYRRGGDSWGQGTLVTVSS
VL: DIQMTQSPSSLSASVGDRVTITCQASQDIRNYLNWYQQKPGKAPKLLIYDASNLQTGVPSRFSGRGSGTDFTFTISSLQAEDIATYYCQQYDNLPITFGQGTRLEIK
[5]
  fluorescence of ACE2 protein: 244
[3]
  fluorescence of ACE2 protein: 1360
[2]
  binding amount (%) of ACE2 protein: 10.1%
[4]
  fluorescence of ACE2 protein: 429

B11: Ab302 (antibody, V domains shown)
VH: EVQLVESGGGLVQPGGSLRLSCAASGVIVSRNYMTWVRQAPGKGLEWVSVIYSGGSTFYADSVKGRFTISRDNSKNTLYLQMNSLRAEDTAVYYCARDRGEDVFDIWGQGTMVTVSS
VL: DIQLTQSPSSLSASVGDRVTITCRASQGISSYLAWYQQKPGKAPKLLIYAASTLQSGVPSRFSGSGSGTDFTLTISSLQPEDFATYYCQQLNSYPGYTFGQGTKLEIK
[5]
  fluorescence of ACE2 protein: 189
[3]
  fluorescence of ACE2 protein: 1400
[2]
  binding amount (%) of ACE2 protein: 4.7%
[4]
  fluorescence of ACE2 protein: 372

B12: Ab114 (antibody, V domains shown)
VH: EVQLVESGGGLIQPGGSLRLSCAASGFTVSSNYMNWVRQAPGKGLEWVSVIYSGGSTFYADSVKGRFTISRDNSKNTLYLQMNSLRVEDTAVYYCARDLDTQGGMDVWGQGTTVTVSS
VL: EIVLTQSPGSLSLSPGERATLSCRASQGVSSSYLAWYQHKPGQAPRLLIFGASTRATGIPDRFSGSGSGTDFTLTISRLEPEDFAVYYCQLYGSSPGTFGQGTKLEIK
[5]
  fluorescence of ACE2 protein: 672
[3]
  fluorescence of ACE2 protein: 3900
[2]
  binding amount (%) of ACE2 protein: 10.9%
[4]
  fluorescence of ACE2 protein: 2040

B13: Ab765 (antibody, V domains shown)
VH: QVQLVESGGGVVQPGRSLRLSCAASGFTFSDYAIHWVRQAPGRGLEPVALISYDGNNKYYADSVKGRFTISRDNSKNVLYLQMNSLRADDTAVYYCARDAEGGWVAALDYWGQGTLVTVSS
VL: QSALTQPRSVSGSPGQSVTISCTGTSSDVGGYNYVSWYQHHPGKAPKVMIYEVSKRPSGVPDRFSGSKSGTTASLTISGLQAEDEADYYCCSYAGTYPYVFGTGTKVTVL
[1]
  IC50 of pseudovirus infection (luciferase): 0.005 µg/mL
[2]
  binding amount (%) of ACE2 protein: 0.9%
